Measurements taken from patent publication US7235626B1, “Structured peptide scaffold for displaying turn libraries on phage” (Genentech, Inc., priority 1999, dated 2007).
Positions of bridges follow the written chain, without caps; N, C: chain ends. No end group written: not given here.

What was measured:
[1] = 1H NMR analysis of hairpin structure in solution; assay type: physicochemical; conditions: for structure in solution: NMR, ~2 mM peptide, pH 3.5
Procedure: NMR Spectroscopy. […] All spectra were acquired on a Bruker DRX-500 or a Varian Unity-400 spectrometer at 15° C. 2QF-COSY, TOCSY and ROESY spectra were acquired as described (Cavanagh et al. (1995) Protein NMR Spectroscopy, Principles and Practices (Academic Press, San Diego) with gradient coherence selection (van Zijl et al. (1995) J. Magn. Reson. 113A:265-270), or excitation sculpting (Hwang & Shaka, (1995) J. Magn. Reson. 112A, 275-279.) for water suppression. Proton resonances were assigned by standard methods (Wüthrich (1986) NMR of Proteins and Nucleic Acids (John Wiley and Sons, New York). 3JH^N-H^α were obtained by fitting Lorentzian lines to the antiphase doublets of HN—H^α peaks in 2QF-COSY spectra processed to high digital resolution in F2. ^3JH^N-H^α were extracted from COSY-35 spectra acquired on D2O solutions of the peptides. Distance and dihedral angle restraints were generated as described (Skelton et al. (1994) Biochemistry 33:13581-13592). 100 initial structures were calculated using the hybrid distance geometry/simulated annealing program DGII (Havel et al. (1991) Prog. Biophys. Mol. Biol. 56:43-78.); 80 of these were further refined by restrained molecular dynamics using the AMBER all-atom forcefield implemented in DISCOVER as described previously (Skelton et al. (1994) Biochemistry 33:13581-13592.). […]
Structure Calculation. Structures were calculated with 78 ROE-derived distance restraints (10 medium- and 28 long-range restraints; upper bounds of 5.4, 4.3, 3.4 or 3.0 Å) and 12 dihedral angle restraints. […]
NMR Analysis. […] Spectra were acquired and analyzed as described above. The structure of cd2 was calculated from 84 (including 13 medium- and 23 long-range) ROE-derived distance restraints and 13 dihedral angle restraints. […]
Analysis of Sidechain Rotamers. […] Given the large number of backbone-backbone distance and Φ dihedral angle restraints, the structures calculated for bhpw and cd2 do accurately represent the solution conformation of these peptides, except in the over determination of some side chain orientations.

[2] = Circular dichroism spectra of peptides; assay type: physicochemical; conditions: 10° C.; 20 μM peptide in 20 mM potassium phosphate, pH 7.0
Procedure: Terminal serine and lysine residues were added to improve the solubility of some variants of the CD4 peptide, which are otherwise uncharged. A similar modification was made to bhpW as a control. Non-turn residues that differ between bhpW and the CD4 loop are underlined. Coelution of reduced and oxidized peptides prevented measurement of Ceff for the T2, N3 variant of the CD4 peptide. Circular dichroism spectra were acquired at 10° C. with an Aviv Instruments, Inc. Model 202 spectrophotometer; peptide concentrations were 20 μM in 20 mM potassium phosphate, pH 7.0.

[3] = Cysteine effective concentration (Ceff) measurement, thiol-disulfide equilibrium relative to glutathione; assay type: physicochemical
Procedure: Cysteine Effective Concentration Measurements. Glutathione stock solutions were prepared by mixing 3 volumes of 0.2 M reduced glutathione (GSH) with 1 volume of 0.1 M oxidized glutatione (GSSG). Aliquots were stored at −80° C. and were stable for several months; use of a single batch eliminated any error in ΔΔG values that might arise from variability of total glutathione concentration. Thiol-disulfide equilibria were established by mixing 50 μL peptide stock (approximately 3 mM in water) with 50 μL glutathione stock, deoxygenating the acidic solution with vacuum/argon cycles from a Firestone valve, then adding 300 μL of deoxygenated buffer by syringe (0.2 M tris, pH 8.0; 1 mM EDTA; 67 mM tris base to titrate glutathione), followed by further deoxygenation of the mixture. The final pH of all reaction mixtures was 8.10±0.05. Solutions were stirred under argon and maintained at 20° C. in a water bath. After 1.5 h, successive aliquots (100 μL) were removed with a gastight syringe, immediately quenched by discharge into 400 μL of 3.1 mM HCl, and analyzed by HPLC with a minimum of delay. Ceff values were calculated from the molar ratios of the reduced and oxidized forms of peptide and glutathione (peak area ratios corrected for absorbance differences measured by HPLC), assuming 0.025 M total glutathione monomer (i.e., neglecting the minor amount (<1%) of glutathione present in mixed disulfides with peptide): Ceff=([peptideox]/[peptidered])×([GSH]^2/[GSSG]) [GSH]+2[GSSG]=0.025 M [GSSG]=0.025 M/{2+3.26 (GSH peak area/GSSG peak area)} [peptideox]/[peptidered]=equilibrium peak area ratio/absorbance ratio
Two or three samples from each reaction mixture were analyzed; there were no shifts in populations with time, and calculated Ceff values typically varied by less than 5% (equivalent to 30 cal/mol uncertainty in ΔΔG).

CD4 = conditions: normal CD4 interactions and CD4-mediated cell entry by HIV; cited from earlier work

Substance | [θ]215 [2] | structure in solution [1] | other results
Ac-CTWEGNKLTC-NH2 (disulfide 1-10 (inferred)) [bhpW, tryptophan analog of the model β-hairpin peptide bhp] | −19,800 deg cm^2 dmol^−1 | – | hairpin conformation population ([1]; 15° C., estimate): > 80%; Ceff ([3]; Table 1, bhp peptides varied at residue 3, pH 8.10, 20° C.): 210 ± 4 mM; Ceff ([3]; Table 2, bhpW and CD4 C′-C″ loop peptides, pH 8.10, 20° C.): 210 ± 4 mM
Ac-CGNQGSFLTC-NH2 (disulfide 1-10 (inferred)) [cd1, disulfide-constrained peptide based on native CD4 hairpin residues 38-45] | – | essentially unstructured | –
FCYICEVEDQCY (also: cyclic, type and places not given here) [cyclic peptide from loops of domain 1 of human CD4] | – | – | antagonism of CD4 interactions (CD4): antagonize
Ac-CTWQGSFLTC-NH2 (disulfide 1-10 (inferred)) [cd2, cd1 with substitutions G2T and N3W] | −15,800 deg cm^2 dmol^−1 | well-ordered | –
